# Measured values published in patent US20260217863A1, “ANTIBODY OR PEPTIDE BINDING SPECIFICALLY TO RNASE A, IMMUNOASSAY DEVICE AND METHOD FOR DETECTING RNASE A, AND METHOD FOR COLLECTING RNASE A” (UIF (University Industry Foundation), Yonsei University, priority 2022, published 2026).
# Target: Ribonuclease A (Type II-A) from bovine pancreas (bovine) (UniProt P61823)
# Test: cell-based or functional assay
# Sequence of Ribonuclease A (Type II-A) from bovine pancreas (bovine) (P61823 27-150): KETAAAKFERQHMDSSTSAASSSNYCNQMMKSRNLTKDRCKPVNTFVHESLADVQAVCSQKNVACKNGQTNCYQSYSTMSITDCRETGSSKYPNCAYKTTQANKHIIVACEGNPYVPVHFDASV
Substance,"IC50 for RNase A activity inhibition, HeLa total RNA cleavage, agarose gel image","inhibition level, RNA probe assay (fluorophore and quencher), inhibitor at 1 µM"
Biofact RNase inhibitor,257 nM,35.8%
RNaseOUT recombinant ribonuclease inhibitor,381 nM,27.2%
